Measurements from publication doi:10.1101/2022.10.25.513744.
Where “and” joins values, the source holds several entries; their conditions need not be identical. Equal entries are not always repeated. One block for each molecule: values may come before it.

How the values were obtained:
Miro1^P13V ΔTM = Miro1^P13V ΔTM (UniProt Q8IXI2); experiment: mass photometry
Miro1^P13V-Strep = Miro1^P13V-Strep (UniProt Q8IXI2); experiment: pull-down

Sequence of UniProt Q8IXI2 (Q8IXI2 whole entry P13V, the tested form may be a part): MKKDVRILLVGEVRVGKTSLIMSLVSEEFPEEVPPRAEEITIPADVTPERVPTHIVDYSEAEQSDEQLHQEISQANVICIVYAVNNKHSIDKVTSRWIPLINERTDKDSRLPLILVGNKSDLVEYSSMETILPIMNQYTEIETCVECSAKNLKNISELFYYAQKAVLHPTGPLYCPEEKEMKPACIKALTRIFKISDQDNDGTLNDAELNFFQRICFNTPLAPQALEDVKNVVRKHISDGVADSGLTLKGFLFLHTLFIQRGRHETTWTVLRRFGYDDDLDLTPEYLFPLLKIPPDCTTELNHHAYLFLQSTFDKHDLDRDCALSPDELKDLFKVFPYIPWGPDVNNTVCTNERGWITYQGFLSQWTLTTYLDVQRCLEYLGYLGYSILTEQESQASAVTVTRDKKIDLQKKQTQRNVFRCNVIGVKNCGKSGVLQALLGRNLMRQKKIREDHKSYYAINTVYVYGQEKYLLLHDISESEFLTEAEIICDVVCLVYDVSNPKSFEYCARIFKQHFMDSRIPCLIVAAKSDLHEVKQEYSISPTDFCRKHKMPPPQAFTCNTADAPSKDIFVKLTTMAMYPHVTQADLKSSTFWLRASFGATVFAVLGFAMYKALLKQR

percent forming dimers (Miro1^P13V ΔTM): 3%
stoichiometry N (Miro1^P13V ΔTM): 3 and 4
Molecule: Miro1^P13V ΔTM (from UniProt Q8IXI2 1-618) (domain or fragment)

reduction of the TRAK1:Miro1-Strep band intensity against Miro1^WT (Miro1^P13V-Strep): 30%
B1: TRAK1^562-635 (domain or fragment)
chain: MSFSSRSYLPEKLQIVKPLEGSATLHHWQQLAQPHLGGILDPRPGVVTKGFRTLDVDLDEVYCLNDFEEDDTGD
